Source: patent publication US20240229000A1, “METHODS AND COMPOSITIONS THEREOF FOR SITE-[…] LABELING OF HUMAN IgG BY PROXIMITY-BASED SORTASE-MEDIATED LIGATION” (THE TRUSTEES OF THE UNIVERSITY OF PENNSYLVANIA, priority 2021, published 2024)

Test system: trastuzumab (HCLPETG+LC)
Experiment: Proximity-based sortase-mediated protein ligation (PBS-PL) heavy chain labeling with GGG-TAMRA
Format: biochemical
Details: 1 μg trastuzumab (HCLPETG+LC), 200 μM GGG-TAMRA, 37° C. overnight
Description: FIGS. 13A-13C show comparison of proximity-based sortase-mediated protein ligation with 1M SrtA versus traditional sortase labeling with the pentamutant SrtA. FIG. 13A: Heavy chain labeling of trastuzumab (HCLPETG+LC) was carried out by titrating 5M SrtA (5M SrtA/antibody molar ratios ranging from 1:1 to 100:1) and comparing the labeling efficiency to that of 5M SrtA-pG, 1M SrtA-pZ, 1M SrtA-pG, and 1M pG-SrtA. […] Labeling efficiencies of 5M SrtA (FIG. 13B) and 1M SrtA-pZ (FIG. 13C) on the heavy chain were further compared by scaling the GGG-TAMRA concentration from 1-200 μM. Reaction conditions included: 1 μg trastuzumab (HCLPETG+LC), 500 μM CaCl2, 200 μM GGG-TAMRA, and 0.63 μM SrtA variant (1:1 molar ratio of 1M SrtA-pZ to antibody) in 10 mM Tris-HCl buffer (37° C. overnight). For all titration experiments, all other reactions conditions were held constant. Labeling efficiencies were determined by measuring the fluorescent intensity of the heavy chain band. For each experiment, these values were normalized against the maximum fluorescent intensity to compare across reaction conditions. One-way ANOVA was used to determine statistical significance (*P<0.05, n.s.=not significant), followed by Tukey's multiple comparisons test. Bar graphs are represented as average f SD. N=3 per reaction condition.

trastuzumab (HCLPETG+LC), sequence (as listed by the source, other chains not shown): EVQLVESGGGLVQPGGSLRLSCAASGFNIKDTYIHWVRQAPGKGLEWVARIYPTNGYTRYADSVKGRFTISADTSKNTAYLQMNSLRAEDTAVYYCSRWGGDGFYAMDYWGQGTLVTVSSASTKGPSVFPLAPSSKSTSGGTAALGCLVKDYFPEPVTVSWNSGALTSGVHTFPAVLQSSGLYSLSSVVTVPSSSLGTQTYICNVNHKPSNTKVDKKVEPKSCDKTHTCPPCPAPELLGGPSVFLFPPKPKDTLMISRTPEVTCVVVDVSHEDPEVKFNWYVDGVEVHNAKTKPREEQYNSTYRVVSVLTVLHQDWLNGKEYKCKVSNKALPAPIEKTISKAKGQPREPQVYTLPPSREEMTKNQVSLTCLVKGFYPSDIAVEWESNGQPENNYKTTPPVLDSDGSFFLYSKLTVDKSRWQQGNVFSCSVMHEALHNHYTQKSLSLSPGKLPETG

B1: 5M SrtA-pG (protein)
chain: MQAKPQIPKDKSKVAGYIEIPDADIKEPVYPGPATREQLNRGVSFAEENESLDDQNISIAGHTFIDRPNYQFTNLKAAKKGSMVYFKVGNETRKYKMTSIRNVKPTAVEVLDEQKGKDKQLTLITCDDYNEETGVWETRKIFVATEVKGGSGGSMTFKLIINGKTLKGEITIEAVDAAEAEKIFKQYANDYGIDGEWTYDDATKTFTVTE
heavy chain labeling efficiency of trastuzumab (HCLPETG+LC): did not label antibodies as efficiently as 1 M SrtA-pG and 1M SrtA-pZ
